Data on one substance can be found in publication PMC7064404.

The target of assay [1] is GST-Shank3 (572-691) wild type, pre-phosphorylated by CaMKIIα at Ser685 (rat). Nature of the assay: pull-down.
The target in assay [2] is GFP-tagged full length Shank3 S685D (rat) (rat). Put plainly: co-IP.
The target of assay [3] is GFP-tagged full length Shank3 S685A (rat) (rat). Nature of the assay: co-IP.

Sequence of GST-Shank3 (572-691) wild type, pre-phosphorylated by CaMKIIα at Ser685 (rat) (Q9JLU4 572-691): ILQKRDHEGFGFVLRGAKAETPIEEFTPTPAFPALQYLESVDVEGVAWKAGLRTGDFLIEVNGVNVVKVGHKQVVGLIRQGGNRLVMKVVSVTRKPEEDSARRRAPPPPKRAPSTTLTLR

In the case of “N-terminal HA-tagged ABI1 (Abelson interactor 1), full length (from UniProt Q8IZP0 1-508) (natural protein)”, in assay [1], the HA-ABI1 binding (HA/GST) relative to no CaMKII condition was found to be 148%. In addition, the percent reduction of co-immunoprecipitated HA-ABI1 (HA/GFP) compared to WT in assay [2] was determined as 32%; in assay [3] it was 37%.
